B1: Pseudomonas putida WCS358 PupR cytoplasmic anti-sigma domain (PupR-ASD), wild type (domain or fragment)
chain: GAMGMNGQGATSIPGEVAEQAMHWHLELQEPAVSAATLAACMSWRQAHPLHEHAWQRTQVFAQRLREMRSPGQRPLAHAALRPQQS
B2: PupR-ASD L61D (domain or fragment, Pseudomonas putida WCS358)
chain: GAMGMNGQGATSIPGEVAEQAMHWHLELQEPAVSAATLAACMSWRQAHPLHEHAWQRTQVFAQRDREMRSPGQRPLAHAALRPQQS
B3: PupR-ASD M18D (domain or fragment, Pseudomonas putida WCS358)
chain: GAMGMNGQGATSIPGEVAEQADHWHLELQEPAVSAATLAACMSWRQAHPLHEHAWQRTQVFAQRLREMRSPGQRPLAHAALRPQQS
B4: PupR-ASD L22D (domain or fragment, Pseudomonas putida WCS358)
chain: GAMGMNGQGATSIPGEVAEQAMHWHDELQEPAVSAATLAACMSWRQAHPLHEHAWQRTQVFAQRLREMRSPGQRPLAHAALRPQQS
B5: PupR-ASD R53D (domain or fragment, Pseudomonas putida WCS358)
chain: GAMGMNGQGATSIPGEVAEQAMHWHLELQEPAVSAATLAACMSWRQAHPLHEHAWQDTQVFAQRLREMRSPGQRPLAHAALRPQQS
B6: PupR-ASD F57D (domain or fragment, Pseudomonas putida WCS358)
chain: GAMGMNGQGATSIPGEVAEQAMHWHLELQEPAVSAATLAACMSWRQAHPLHEHAWQRTQVDAQRLREMRSPGQRPLAHAALRPQQS
B7: PupR-ASD Q42D (domain or fragment, Pseudomonas putida WCS358)
chain: GAMGMNGQGATSIPGEVAEQAMHWHLELQEPAVSAATLAACMSWRDAHPLHEHAWQRTQVFAQRLREMRSPGQRPLAHAALRPQQS
B8: PupR-ASD M38D (domain or fragment, Pseudomonas putida WCS358)
chain: GAMGMNGQGATSIPGEVAEQAMHWHLELQEPAVSAATLAACDSWRQAHPLHEHAWQRTQVFAQRLREMRSPGQRPLAHAALRPQQS
B9: PupR-ASD A35D (domain or fragment, Pseudomonas putida WCS358)
chain: GAMGMNGQGATSIPGEVAEQAMHWHLELQEPAVSAATLDACMSWRQAHPLHEHAWQRTQVFAQRLREMRSPGQRPLAHAALRPQQS

One series deals with the molecule itself. As to the kind of experiment: AUC.
B1 registered a Kd of 10.2 µM. This counts as double-digit micromolar.

For the protein B2, the Kd is above 500 µM.

On to B3, for which the Kd was determined as 226 µM.

In turn, B4 displayed a Kd above 200 µM.

On to B5, for which the Kd worked out at 562 µM.

Turning to B6, the Kd is above 200 µM.

Turning to B7, binding was put at a Kd of 18.2 µM.

The protein B8 returned a Kd of 11.6 µM.

On to B9, for which the Kd was 13.5 µM.

A further series deals with the molecule itself. As to the kind of experiment: SEC.
As to B1, the “stoichiometry N” value is 2.
